The numbers were not newly measured in patent US20230279132A1, “TREATMENT OF B CELL MALIGNANCIES” (NOVARTIS AG, priority 2020, published 2023), which cites them from elsewhere.

The series concerns DLBCL. Conditions: plus lenalidomide; relapsed or refractory DLBCL ineligible for transplants.

B1: tafasitamab-cxix: FDA-approved with lenalidomide for relapsed or refractory DLBCL (antibody, chains of the INN, looked up)
heavy: EVQLVESGGGLVKPGGSLKLSCAASGYTFTSYVMHWVRQAPGKGLEWIGYINPYNDGTKYNEKFQGRVTISSDKSISTAYMELSSLRSEDTAMYYCARGTYYYGTRVFDYWGQGTLVTVSSASTKGPSVFPLAPSSKSTSGGTAALGCLVKDYFPEPVTVSWNSGALTSGVHTFPAVLQSSGLYSLSSVVTVPSSSLGTQTYICNVNHKPSNTKVDKKVEPKSCDKTHTCPPCPAPELLGGPDVFLFPPKPKDTLMISRTPEVTCVVVDVSHEDPEVQFNWYVDGVEVHNAKTKPREEQFNSTFRVVSVLTVVHQDWLNGKEYKCKVSNKALPAPEEKTISKTKGQPREPQVYTLPPSREEMTKNQVSLTCLVKGFYPSDIAVEWESNGQPENNYKTTPPMLDSDGSFFLYSKLTVDKSRWQQGNVFSCSVMHEALHNHYTQKSLSLSPG
light: DIVMTQSPATLSLSPGERATLSCRSSKSLQNVNGNTYLYWFQQKPGQSPQLLIYRMSNLNSGVPDRFSGSGSGTEFTLTISSLEPEDFAVYYCMQHLEYPITFGAGTKLEIKRTVAAPSVFIFPPSDEQLKSGTASVVCLLNNFYPREAKVQWKVDNALQSGNSQESVTEQDSKDSTYSLSSTLTLSKADYEKHKVYACEVTHQGLSSPVTKSFNRGEC
Consider B1, for which the CR is on record as 37% and the ORR was 55%.
